Here are results for two substances from patent publication US20210261667A1.

Assay [1] has as its target PD-L1 expressed on the cell surface (HEK293F transiently transfected; A375/PD-L1 stably transfected cells) (UniProt Q9NZQ7). The assay can be described thus: flow cytometry blocking assay on HEK293F cells transiently transfected with PD-L1; blocked ligand hPD-1 biotin, SA-PE detection. A general note: A flow cytometer gives signals particle by particle.
Assay [2] shares this target. The assay can be described thus: flow cytometry blocking assay on A375/PD-L1 cells; blocked ligand hPD-1(ECD)-Fc-Biotin, SA-PE detection; no concentration printed for this panel, which stands above the 0.5 ug/ml column.
Assay [3] has the same target. Kind of assay: flow cytometry blocking assay on A375/PD-L1 cells; blocked ligand hPD-1(ECD)-Fc-Biotin, SA-PE detection, MFI [table, row 1].
For assay [4] the target is unchanged. The assay can be described thus: flow cytometry blocking assay on A375/PD-L1 cells; blocked ligand hPD-1(ECD)-Fc-Biotin, SA-PE detection [column 0.5 ug/ml].
Assay [5] has the same target. Kind of assay: flow cytometry blocking assay on A375/PD-L1 cells; blocked ligand hPD-1(ECD)-Fc-Biotin, SA-PE detection [column 0.05 ug/ml].
Assay [6] shares this target. Kind of assay: flow cytometry blocking assay on A375/PD-L1 cells; blocked ligand hPD-1(ECD)-Fc-Biotin, SA-PE detection [column 0.005 ug/ml].

Sequence of PD-L1 expressed on the cell surface (HEK293F transiently transfected; A375/PD-L1 stably transfected cells) (Q9NZQ7 19-290 limits assumed): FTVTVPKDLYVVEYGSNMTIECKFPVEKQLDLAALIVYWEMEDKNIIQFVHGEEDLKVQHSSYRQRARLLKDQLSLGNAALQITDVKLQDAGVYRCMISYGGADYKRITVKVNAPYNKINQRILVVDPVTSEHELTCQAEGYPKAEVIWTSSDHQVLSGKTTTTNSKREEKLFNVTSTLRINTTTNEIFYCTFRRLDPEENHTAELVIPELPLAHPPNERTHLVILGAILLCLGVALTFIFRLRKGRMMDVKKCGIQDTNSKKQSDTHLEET

Turning to negative control antibody, the Q2 % (cells still positive for PD-1-biotin with the antibody present) in assay [1] is 86.2%. This substance displayed a Q2 % (cells still positive for hPD-1(ECD)-Fc-Biotin with the antibody present) in assay [2] of 85.9%.
In the case of Tecentriq (antibody), the IC50 in assay [3] was found to be 0.456 µg/mL. Moreover, the Q2 % (cells still positive for hPD-1(ECD)-Fc-Biotin) at 0.5 ug/ml antibody in assay [4] was determined as 11.8%. Also, the Q2 % (cells still positive for hPD-1(ECD)-Fc-Biotin) at 0.05 ug/ml antibody in assay [5] is 85.3%. In assay [6], this substance registered a Q2 % (cells still positive for hPD-1(ECD)-Fc-Biotin) at 0.005 ug/ml antibody of 86%.

As a reminder, the IC50 is the concentration needed to halve the response being measured.
